Data on one molecule can be found in patent US8273705B2, “Conversion of apoptotic proteins” (The Burnham Institute, priority 2002, dated 2012).

In one experiment the test system is MDA-MB-231 cells. Put plainly: GFP-TR3/ΔDBD localization and cytochrome c release in MDA-MB-231 cells. The experiment is classed as cell-based. To be noted: MDA-MB-231, absence of any treatment. The protocol:
Subcellular localization assays—Cells were seeded onto cover-slips in 6-well plates overnight, then transiently transfected with GFP-fusion expression plasmids. After 16 hours, cells were washed with PBS and fixed in 4% paraformaldehyde. For mitochondrial staining, cells were then incubated with anti-Hsp60 goat IgG (Santa Cruz, USA), followed by anti-goat IgG conjugated with Cy3 (Sigma). For cyt c staining, cells were incubated with monoclonal anti-cyt c IgG (PharMingen), followed by anti-mouse IgG conjugated with Cy5 (Amersham). Fluorescent images were collected and analyzed using a MRC-1024 MP laser-scanning confocal microscope (Bio-Rad). Subcellular fractionation assays were performed as described (Li, et al. 2000 Science 289:1159-1164). Briefly, cells (1×10^7 cells) suspended in 0.5 ml hypotonic buffer (5 mM Tris-HCl, pH 7.4, 5 mM KCl, 1.5 mM MgCl2, 0.1 mM EGTA, pH 8.0, and 1 mM DTT) were homogenized and cell extracts were centrifuged at 500×g for 5 min. […]
To study whether the TR3 nuclear-to-mitochondrial targeting pathway also occurs in breast cancer cells, a GFP-TR3 fusion construct was transfected into MDA-MB-231 cells. […] Next, GFP-TR3/ΔDBD was transiently transfected into ZR-75-1 or MDA-MB-231 cells, stained for mitochondria (Hsp60) and cytochrome c (Cyt c), and analyzed by confocal microscopy.

In the next experiment the target is T1, Bcl-2/ΔTM (Homo sapiens, UniProt P10415).
T1 construct: expressed in transfected cells; host or cells: CV-1
In words: Mammalian two-hybrid assay in CV-1 cells. The experiment is classed as cell-based. The conditions noted are these: Gal-TAD fusion co-expressed with Gal4-DBD-Bcl-2/ΔTM, 48 h. The method, then: TR3/Bcl-2 interaction assays—Reporter gene assays using NurRE-tk-CAT in CV-1 cells, and GST pull-down assay were described previously (Li, et al. 2000 Science 289, 1159-1164). For the mammalian two-hybrid assays, CV-1 cells were co-transfected with pcDNA-Gal4TAD-TR3 or pcDNA-Gal4TAD-TR3/ΔDBD and pcDNA-Gal4DBD-Bcl-2/ΔTM along with a luciferase reporter gene driven by four copies of the Gal4-binding site. The cells were harvested and reporter gene activity was measured. For Co-IP assays, HEK293T cells were transiently transfected with various expression plasmids using a modified calcium phosphate precipitation method (Wu et al, 1997) in the presence of caspase inhibitors (zVAD-fmk) to prevent degradation of TR3 protein due to apoptosis. Cells were suspended in lysis buffer (50 mM Tris-HCl, PH7.4; 150 mM NaCl; 20 mM EDTA; 1% NP-40; 1 mM PMSF; 50 μg/ml Leupeptin; […]; 0.1 mM Na3VO4; and 1 mM DTT). […] Immunoreactive products were detected by chemiluminescence with an enhanced chemiluminescence system (ECL) (Amersham).
E. Two-hybrid assay—a two-hybrid assay was performed to assess the interaction of TR3 and Bcl-2. […] Reporter gene activity was determined 48 h later and normalized relative to β-gal activity.

Experiment [1] deals with peripheral blood lymphocytes (PBLs). In words: TR3 subcellular localization in peripheral blood lymphocytes. The experiment is classed as cell-based, human. The conditions noted are these: DsRed2-Mito.
Excerpt: TR3 subcellular localization was studied by both confocal microscopy and subcellular fractionation approaches. For microscopy experiments, freshly isolated PBLs were transfected with GFP-TR3, then treated with phorbol ester TPA and the calcium ionophore ionomycin, which induce TR3-dependent apoptosis of T-lymphocytes.
Another experiment addresses T2, Bcl-2 (Homo sapiens, UniProt P10415).
T2 construct: expressed in transfected cells; host or cells: HEK293T
Put plainly: Bcl-2 conformation by epitope-specific antibody immunofluorescence (flow cytometry). The experiment is classed as cell-based. The conditions noted are these: HEK293T, co-expressed with Bcl-2, 14 h. The method, then:
Therefore the possibility that a conformational change might be involved in the conversion of Bcl-2 from anti-apoptotic to pro-apoptotic function was explored. To this end, the effects of TR3 on binding of Bcl-2 to various anti-Bcl-2 antibodies recognizing different epitopes were compared. Antibody binding to Bcl-2 was measured by immunofluorescence using flow cytometry (See FIGS. 9a-f) or by immunoprecipitation.
The transfected cells were identified by their green fluorescence by flow cytometric analysis, and the intensity of Bcl-2 immunofluorescence was compared between the GFP-positive and GFP-negative cells. […] This TR3/ΔDBD-induced change in Bcl-2 conformation was also observed in PBLs in addition to HEK293T cells (See FIGS. 9a-f).

T2 sequence (P10415 whole entry): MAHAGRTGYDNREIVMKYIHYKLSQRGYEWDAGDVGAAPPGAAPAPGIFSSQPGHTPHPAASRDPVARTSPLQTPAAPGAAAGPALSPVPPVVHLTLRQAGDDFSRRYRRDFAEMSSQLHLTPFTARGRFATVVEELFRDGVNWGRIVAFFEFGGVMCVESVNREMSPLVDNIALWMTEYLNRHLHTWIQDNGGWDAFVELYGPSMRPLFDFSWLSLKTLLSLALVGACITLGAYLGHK
T1 sequence (P10415 1-204 limits assumed, stated change not applied): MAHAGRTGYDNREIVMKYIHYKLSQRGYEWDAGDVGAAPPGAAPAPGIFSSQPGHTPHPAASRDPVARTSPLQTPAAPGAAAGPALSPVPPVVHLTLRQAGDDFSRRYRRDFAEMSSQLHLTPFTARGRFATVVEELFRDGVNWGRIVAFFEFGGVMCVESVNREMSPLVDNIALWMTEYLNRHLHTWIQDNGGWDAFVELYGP

B1: TR3/ΔDBD: TR3 mutant with the DNA binding domain removed; used as GFP fusion (protein)
chain: MPCIQAQYGTPAPSPGPRDHLASDPLTPEFIKPTMDLASPEAAPAAPTALPSFSTFMDGYTGEFDTFLYQLPGTVQPCSSASSSASSTSSSSATSPASASFKFEDFQVYGCYPGPLSGPVDEALSSSGSDYYGSPCSAPSPSTPSFQPPQLSPWDGSFGHFSPSQTYLVLHRLQCARGFGDWIDSILAFSRSLHSLLVDVPAFACLSALVLITDRHGLQEPRRVEELQNRIASCLKEHVAAVAGEPQPASCLSRLLGKLPELRTLCTQGLQRIFYLKLEDLVPPPPIIDKIFMDTLPF
modifications: left off: large carriers; small tags and cut ends
notes: used as GFP fusion
Turning to B1, in the experiment with MDA-MB-231 cells, the GFP-TR3/ΔDBD subcellular localization result is recorded as “targeted to mitochondria” and the cytochrome c release result is recorded as “caused release of cytochrome c from the mitochondria”. Also, the “Gal4 reporter gene activity” value in the experiment with Bcl-2/ΔTM was “strongly activated”. Also, in experiment [1], the mitochondrial colocalization entry is given as “colocalized extensively with DsRed2-Mito”. In the experiment with Bcl-2, the “Bcl-2 immunofluorescence, antibody against BH3-binding pocket” value is “reduced”; the “Bcl-2 immunofluorescence, antibody against Bcl-2 BH3 domain” value is reported as “dramatically increased”; the “Bcl-2 immunofluorescence, antibody against whole Bcl-2 protein” value is given as “did not result in altered Bcl-2 immunofluorescence”.
